Measured values taken from patent publication US20250026849A1 (ARCELLX, published 2025).

T1: extracellular domain of human CS1 protein (human, UniProt Q9NQ25 23-226)
T1 construct: Panning target; also called CS1 mature ECD
T1 sequence: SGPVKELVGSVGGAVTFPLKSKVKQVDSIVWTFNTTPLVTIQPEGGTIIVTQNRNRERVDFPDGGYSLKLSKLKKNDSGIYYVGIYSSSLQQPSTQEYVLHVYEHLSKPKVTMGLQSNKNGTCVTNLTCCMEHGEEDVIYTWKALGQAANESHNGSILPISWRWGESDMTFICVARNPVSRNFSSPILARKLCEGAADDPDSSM

T2: CD123 (Homo sapiens (Human), UniProt P26951 19-305, limits assumed)
T2 sequence: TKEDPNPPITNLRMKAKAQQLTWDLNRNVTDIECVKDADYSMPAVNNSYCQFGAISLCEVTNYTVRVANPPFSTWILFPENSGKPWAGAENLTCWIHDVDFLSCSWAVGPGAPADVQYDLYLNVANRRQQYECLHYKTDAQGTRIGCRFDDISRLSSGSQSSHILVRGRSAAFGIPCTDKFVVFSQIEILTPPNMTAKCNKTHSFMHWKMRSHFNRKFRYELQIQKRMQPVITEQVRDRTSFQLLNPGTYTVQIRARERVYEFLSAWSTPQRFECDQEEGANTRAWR


How the values were obtained:
HER2 = molecular target: T3, HER2 (human, UniProt P04626 23-652); experiment: ELISA, format not described; set-up: unit not given here
T3 construct: also called ERBB2; CD340

[1] = molecular target: T1, extracellular domain of human CS1 …; experiment: phage display panning
[2] = molecular target: T4, extracellular domain of human HER2 protein (human, UniProt P04626 23-652); experiment: phage display panning
T4 construct: Panning target; also called HER2 mature ECD; HER2 (ERBB2, CD340)

CD123 = molecular target: T2, CD123; experiment: ELISA, format not described; set-up: unit not given here

Binder | binding result [1] | other results
D domain SEQ ID NO: 800 (designed binder) MGSWHEFRWRLFAIWQRLHALGGSEAELAAFEKEIAAFESELQAYKGKGNPEVEWLRLDAALIRVMLQAYRHN | – | ELISA_avg (HER2): 10
cc12 CS1 ADBD (SEQ ID NO: 791) (designed binder) MGSWHHFKMHLAGIKLQLEALGGSEAELAEFEEWIADFEGALQDYKGKGNPEVEALRKEAAAIRDELQAYRHN | binds | –
eb03 HER2 ADBD (SEQ ID NO: 804) (designed binder) MGSWAEFRWRLHAIWLQLGALGGSEAELAAFEKEIAAFESELQAYKGKGNPEVEWLRQDAAQIKYILQAYRHN | – | binding result [2]: binds
cc09 CS1 ADBD (SEQ ID NO: 788) (designed binder) MGSWNEFKLELAFIKDWLEALGGSEAELANFEEAIAEFEAGLQGYKGKGNPEVEALRKEAAAIRDELQAYRHN | binds | –
D-domain SEQ ID NO: 347 (designed binder) MGSWEEFWDRLFAIDDRLWALGGSEAELAAFEKEIAAFESELQAYKGKGNPEVETLRNEAAEIRMALQAYRHN | – | ELISA_avg (CD123): 3.1
D-domain SEQ ID NO: 348 (designed binder) MGSWWEFDDRLFAIDTRLMALGGSEAELAAFEKEIAAFESELQAYKGKGNPEVESLREWAATIRMELQAYRHN | – | ELISA_avg (CD123): 3.5
cc01 CS1 ADBD (SEQ ID NO: 780) (designed binder) MGSWVEFEARLSAIYERLEALGGSEAELAAFEKEIAAFESELQAYKGKGNPEVEKLRRHAAGIRSNLQAYRHN | binds | –
cc02 CS1 ADBD (SEQ ID NO: 781) (designed binder) MGSWVEFFVRLDAIWERLEALGGSEAELAAFEKEIAAFESELQAYKGKGNPEVETLRFHAAGIRQKLQAYRHN | binds | –
cc08 CS1 ADBD (SEQ ID NO: 787) (designed binder) MGSWVEFNERLHAIYLRLDALGGSEAELAAFEKEIAAFESELQAYKGKGNPEVETLRRHAAGIRWQLQAYRHN | binds | –
cc10 CS1 ADBD (SEQ ID NO: 789) (designed binder) MGSWMEFEARLEAIWDRLEALGGSEAELAAFEKEIAAFESELQAYKGKGNPEVESLRFHAAGIRQHLQAYRHN | binds | –
